Test results as given in patent publication US20090209427A1, “Microbial glyphosate resistant epsps” (priority 2004, published 2009).

Tested on: C=C(OP(=O)(O)O)C(=O)O
Test: purified protein, by the assay type
Settings: other: C. crescentus EPSPS, 50 mM K+-HEPES pH 7.0, 1 mM shikimate-3-phosphate, varying [14C]PEP

Caulobacter crescentus EPSPS, native, SEQ ID NO: 9 (Caulobacter vibrioides CB15)
Km: 2.0 µM
